For 1 molecule, Kd results are on record in paper PMC7695167, “Targeting the Interaction between the SH3 Domain of Grb2 and Gab2” (Cells, 2020).

Several values for one entry are separate records, joined by “and”; a condition that tells them apart may be missing. Equal values may be shown once.

The target in the experiment is Gab2 503-524 (Homo sapiens), Q9UQC2.
Chain of Gab2 503-524 (Homo sapiens), Q9UQC2 (Q9UQC2 503-524): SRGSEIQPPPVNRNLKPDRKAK

B1: Grb2 C-SH3, P62993 (protein)
chain: QQPTYVQALFDFDPQEDGELGFRRGDFIHVMDNSDPNWWKGACHGQTGMFPRNYVTPVNR
For B1, the Kd is 100 µM and 22 µM.
